A short description of the data set: yeast display, Sf9 membrane polyspecificity reagent, FACS + sequencing; frameworks hold sequencing errors. In outline:
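Using colony PCR, genes from sorted yeast display clones were amplified, then sequenced on MiSeq at 2 × 250 and filtered by CDR length. The clones had been stained with 10% biotinylated, detergent-solubilized Sf9 membrane reagent for 1 hour at 4 °C and sorted by FACS into low and high (top ~1%) gates on anti-HA and streptavidin fluorescence. Polyreactivity labels come from the gate of origin.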
Regarding “QVQLVESGGGLVQAGGSLRLSCAASGLIYFYAMGWYRQAPGKERELVAAISSTGGRTYYADSVKGRFTIARDNAKNTVYLQMNSVKPEDTAVYYCNVLVYNVYTRGYYSYKYYFWGQGTQVTVSS”, the “polyreactivity (PSR sort gate)” value was “high polyreactivity”.
On to “QVQLVESGRGLVQAGGSLRLSCAASGSTFGWYSMGWYRQAPGKERELVTAITSSGDSTYYADSVKGRFTISRDNAKNTVYLQMNSLKPEDTAVYYCAADYADLNDYWGQGTQVTVSS”, for which the “polyreactivity (PSR sort gate)” value is on record as “low polyreactivity”.
As to “QVQLVESGGGLVQAGGSLRLSCAASGFNFVGNAMGWYRQAPGKERELVADITGSDGSTYYADSVKGRFTISRDNAKNTVYLQMNSLKPEDTAVYYCAASPPYKLVWWRRMDYWGQGTQVTVSS”, the “polyreactivity (PSR sort gate)” value was “low polyreactivity”.
Under “QVQLVESGGGLVQAGGSLRLSCAASGRIFIWYGMGWYRQAPGKERELVADISSTGSTNYADSVKGRFTISRDNAKNTVYLQMNSLKPEDTAVYYCAADPETPYYTTYDYDYWGQGTQVTVSS” stands “low polyreactivity”; under “QVQLVESGGGLVQAGGSLRLSCAASGFTFKNYAMGWYRQAPGKEREFVATISSRGGSTYYADSVKGRFTISRDNAKNTVYLQMNSLKPEDPAVYYCAARYFSYGRSRQRHYYWGQGTQVTVSS”, “high polyreactivity”.
Under “QVQLVESGGGLVQAGGSLRLSCAASGSTFVYYAMGWYRQAPGKERELVATINYNGGSTSYADSVKGRFTISRDNAKNTVYLQMNSLKPEDTAVYYCAKDRYYTWGDYWGQGTQVTVSS” stands “low polyreactivity”.
Under “QVQLVESGGGLVKAGGSLRLSCAASGRICSSYAMGWYRQAPGKERELVAAISRGGGRTYYADSVKGRFTNSRDNAKNTVYLQMNSLKPEDTAGYYCAAGRRYASEMDYWGLGTQVTVSS” stands “high polyreactivity”; under “QVQLVESGGGLVQAGGSLRLSCAASGGIFRGYAMGCYRQAPGKERELVATITFSGTSTYYADSVKGRFTISRDNAKNTVYLQMNSLKPEDTAVYYCNADWWFKYDYWGQGTQVTVSS”, “low polyreactivity”.
“QVQLVESGGGLVQAGGRLRLSCAASGRTLATFAMGWSRQAPGKERELVAAITFSGGGSTYYADSVKGRFTISRDNAKNTVYLQMKSLKPEDTADYYCAAGPYYSLFGYGSRDNYRYYYWGQGTQVTVSS”: the “polyreactivity (PSR sort gate)” value is given as “high polyreactivity”.
Under “QVQILESGGGLVQAGGSLRLSCAASGRIFGGYAMGWYRQAPGKERELVAAIRWRGGRTYYADSVKGRFTISRDNAKNTVYLQMNSLKPEDTAVYYCAADYSFTGHRYTYGYWGQGTQVTVSS” stands “high polyreactivity”.
As to “QVQLVESGGGLVQAGGSLRLSSAASGSIFASYAMGWYRQAPGKERELVAAISRRAVRTYYADSVKGRFTISRDNAKNTVYLQMNSLKPEDSAVYYCNAASSLPGYDYWGQGTQLTVSS”, the “polyreactivity (PSR sort gate)” value is on record as “high polyreactivity”.
As to “QVQLVESGGGLVQAGGSLRLTCAASGSTFAWYAMGWYRQAPGKERELVAAISRTGRTYYADSVKGRFTISRDNAKNTVYLQMNSLKPEDTAVYYCAARIERFYRDQRYDYWGQGTQVTVSS”, the “polyreactivity (PSR sort gate)” value was “high polyreactivity”.
With “QVQLVESGGGLVQAGGSLRLSCAASGSTFSYYAMGWYRQAPGKERELVAANTSGCRSKYADSVKGRFTISRDNAKNTVYLQINSLKPEDTAVYYCAKRIENFSGSLAGRWYDYWGQGTQVNVSS”, the “polyreactivity (PSR sort gate)” value was “high polyreactivity”.
With “QVQLVESGGGLVQAGASLRLSCAASVSIFDTNAMGWYRQAPGKERELVASISSGGGSTYYADSVKGRFTISRDNAKNTVYLQMNSLKPEDTAVYFCARRIGHGSRPYWLETWRYAYDYWGQGSQVTVSS”, the “polyreactivity (PSR sort gate)” value is listed as “low polyreactivity”.
On to “QVQLVESGGGLVQAGGSLRLSCAASGLTLKRYAMGWYRQAPGKERELDAAISKSGGSTYYADSVKGRFTSSRDNAKNTVYLQMNSLKPEDTPVYYCAADSYNLWDDYWGQGTQVTVSS”, for which the “polyreactivity (PSR sort gate)” value was “low polyreactivity”.
With “QVQLVESGGGLVQAVGSLRLSCAASGRIIVRNAMGWYRQAPGKERELVAAISRSGGSTYYADSVKGRFTLSRDNAKNTVYLQMNSLIPEYTAVYYCAADYPITYTSKFNYWGHGTQVTVSS”, the “polyreactivity (PSR sort gate)” value was “high polyreactivity”.

The values above are taken from the nanobody polyreactivity screen of Harvey et al. (2022).
